# Test results from patent publication US20210032312A1 (Janssen / Centocor, published 2021).
# Where a chain is given by its changes, count along the chain named.
# B1: P283GR7P1367_B9 (designed binder)
# chain: LPAPKNLVVSRVTEDSARLSWTAPDAAFDSFEIWYHEYHPRGEAIVLTVPSSERSYDLTGLKPGTEYDVVISGVKGGHWSYPLSAIFTT
# notes: FN3 domain
# B2: P283GR7P1367_E5 (designed binder)
# chain: B1 chain with S51G
# notes: FN3 domain
# B3: P283GR7P1367_G8 (designed binder)
# chain: LPAPKNLVVSRVTEDSARLSWTAPDAAFDSFYIAYPEYVWGGEATSLGEAIVLTVPGSERSYDLTGLKPGTEYFVVITGVKGGLGSYPLSAIFTT
# notes: FN3 domain
# B4: P283GR7P1367_H8 (designed binder)
# chain: LPAPKNLVVSRVTEDSARLSWTAPDAAFDSFSINYWEEDPAGEAIVLTVPGSERSYDLTGLKPGTEYRVLIGGVKGGHGSLPLSAIFTT
# notes: FN3 domain
# B5: P283HR7P1368_A10 (designed binder)
# chain: LPAPKNLVVSRVTEDSARLSWTAPDAAFDSFWIFYLEPFPRGEAIPLEVPGSERSYDLTGLKPGTEYSVDIRGVKGGDHSDPLWAYFTT
# notes: FN3 domain
# B6: P283HR7P1368_D1 (designed binder)
# chain: LPAPKNLVVSRVTEDSARLSWTAPDAAFDSFGISYYEWAPNGEAIQLSVPGSERSYDLTGLKPGTEYHVVIIGVKGGEPSHPLGAPFTT
# notes: FN3 domain
# B7: P283ER9P1365_G3 (designed binder)
# chain: B6 chain with P86I
# notes: FN3 domain
# B8: P283HR7P1368_B12 (designed binder)
# chain: B6 chain with S34G, Y36V, W38F, A39T, P40R, N41A, Q46S
# notes: FN3 domain
# B9: P283HR7P1368_H1 (designed binder)
# chain: B6 chain with S34A, Y36I, W38T, P40R, N41W, Q46S, S48T, H68N, E78T
# notes: FN3 domain
# B10: P283HR7P1368_G11 (designed binder)
# chain: LPAPKNLVVSRVTEDSARLSWTAPDAAFDSFGIGYAEPAVTGEAISLSVPGSERSYDLTGLKPGTEYWVVIIGVKGGINSYPLGASFTT
# notes: FN3 domain
# B11: P283ER9P1365_B6 (designed binder)
# chain: B10 chain with A39V, S86I
# notes: FN3 domain
# B12: P283HR7P1368_C3 (designed binder)
# chain: B10 chain with E53K
# notes: FN3 domain
# B13: P283HR7P1368_D2 (designed binder)
# chain: B10 chain with D29N
# notes: FN3 domain
# B14: P283HR7P1368_D4 (designed binder)
# chain: LPAPKNLVVSRVTEDSARLSWTAPDAAFDSFAIWCVEPIPEGEAIPLFVPGSERSYDLTGLKPGTEYRVGIRGVKGGTFSSPLAAPFTT
# notes: FN3 domain
# B15: P283ER9P1365_E2 (designed binder)
# chain: LPAPKNLVVSRVTEDSARLSWTAPDAAFDSFYIPYRESEFRGEAIALPVPGSERSYDLTGLKPGTKYRVIIIGVKGGEFSQPLAAIFTT
# notes: FN3 domain
# B16: P283ER9P1365_A7 (designed binder)
# chain: B15 chain with R36W, F40V, R41Y, K66E, R68Q, I70S, E78V, F79Y
# notes: FN3 domain
# B17: P283ER9P1365_C1 (designed binder)
# chain: B15 chain with R36W, F40V, R41Y, P50T, K66E, R68Q, I70S, E78V, F79Y
# notes: FN3 domain
# B18: P283ER9P1365_F4 (designed binder)
# chain: B15 chain with R68S, A84G
# notes: FN3 domain
# B19: P283ER9P1365_G1 (designed binder)
# chain: B15 chain with P48S, A84G
# notes: FN3 domain
# B20: P283ER9P1365_H3 (designed binder)
# chain: B15 chain with A84S
# notes: FN3 domain
# B21: P283HR7P1368_F10 (designed binder)
# chain: B15 chain with A84G
# notes: FN3 domain
# B22: P283HR7P1368_F6 (designed binder)
# chain: LPAPKNLVVSRVTEDSARLSWTAPDAAFDSFGIGYIEWVHRGEAISLHVPGSERSYDLTGLKPGTEYVVAIVGVKGGEPSTPLGAPFTT
# notes: FN3 domain
# B23: P283HR7P1368_G1 (designed binder)
# chain: LPAPKNLVVSRVTEDSARLSWTAPDAAFDSFLITYWEIEPEGEAIFLGVPGSERSYDLTGLKPGTEYRVQINGVKGGTISYPLFAGFTT
# notes: FN3 domain
# B24: P283ER9P1365_A1 (designed binder)
# chain: B22 chain with G34A, I36V, V39W, H48P, V68N, A70I, V72T, E78I, T81H, P86I
# notes: FN3 domain
# B25: P283HR7P1368_G10 (designed binder)
# chain: B22 chain with G34A, I36V, V39W, H48P, V68W, A70T, V72L, E78I, P79I, P86S
# notes: FN3 domain
# B26: P283HR7P1368_H8 (designed binder)
# chain: LPAPKNLVVSRVTEDSARLSWTAPDAAFDSFGITYLDPRNGEAISLNVPGSERSYDLTGLKPGTEYWVVIIGVKGGINSYPLGASFTT
# notes: FN3 domain
# B27: P283BR9P1363_G7 (designed binder)
# chain: LPAPKNLVVSRVTEDSARLSWSAKKFPRHFDSFLIQYQESEKVGEAIVLTVPGSERSYDLTGLKPGTEYTVSIYGVDVKWEGNRPVASNPLSAIFTT
# notes: FN3 domain
# B28: P283BR9P1363_E6 (designed binder)
# chain: B27 chain with S22Y, K24R, P27I, R28S, H29P
# notes: FN3 domain
# Target: T1, human CD8 alpha (CD8A) on primary human CD8+ T cells (human, UniProt P01732 22-235)
# T1 construct: whole, on cells; also called hCD8A
# T1 sequence (P01732 22-235): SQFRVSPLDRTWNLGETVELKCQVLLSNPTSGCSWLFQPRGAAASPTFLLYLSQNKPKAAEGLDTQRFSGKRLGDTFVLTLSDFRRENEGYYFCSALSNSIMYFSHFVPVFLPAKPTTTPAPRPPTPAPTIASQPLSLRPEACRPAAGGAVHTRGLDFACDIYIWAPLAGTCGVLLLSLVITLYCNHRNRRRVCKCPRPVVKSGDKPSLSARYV
# Assay: flow cytometry, human CD8+ T cells
Human T-cell Binding 0.2 uM (MFI),Human T-cell Binding 2 uM (MFI),Binder
1090 MFI,11200 MFI,B1
1330 MFI,10000 MFI,B2
450 MFI,1460 MFI,B3
303 MFI,5270 MFI,B4
3230 MFI,13600 MFI,B5
2310 MFI,14100 MFI,B6
2920 MFI,12500 MFI,B7
1540 MFI,13400 MFI,B8
2460 MFI,15400 MFI,B9
2650 MFI,19300 MFI,B10
3400 MFI,23000 MFI,B11
2220 MFI,12700 MFI,B12
1910 MFI,15200 MFI,B13
6850 MFI,29000 MFI,B14
2870 MFI,20000 MFI,B15
1320 MFI,18500 MFI,B16
644 MFI,8000 MFI,B17
2600 MFI,24100 MFI,B18
318 MFI,1280 MFI,B19
953 MFI,18000 MFI,B20
2660 MFI,18800 MFI,B21
3510 MFI,14300 MFI,B22
4940 MFI,31300 MFI,B23
3860 MFI,25500 MFI,B24
753 MFI,8120 MFI,B25
1610 MFI,22800 MFI,B26
2340 MFI,4640 MFI,B27
2080 MFI,8240 MFI,B28

# Target: T2, cynomolgus monkey CD8 alpha on primary cynomolgus CD8+ T cells (cynomolgus monkey, UniProt P01732 23-235 (human entry))
# T2 construct: also called Cyno CD8alpha; cyno CD8A
# T2 sequence (P01732 other isoform, or with tags, fused parts or gaps limits assumed): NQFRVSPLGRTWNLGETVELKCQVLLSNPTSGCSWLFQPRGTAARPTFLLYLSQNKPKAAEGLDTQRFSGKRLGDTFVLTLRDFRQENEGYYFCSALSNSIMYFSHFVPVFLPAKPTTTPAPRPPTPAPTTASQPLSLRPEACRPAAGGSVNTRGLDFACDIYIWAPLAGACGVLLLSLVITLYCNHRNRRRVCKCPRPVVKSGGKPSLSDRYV
# Assay: flow cytometry, cyno CD8+ T cells
Cyno T-cell Binding 0.2 uM (MFI),Cyno T-cell Binding 2 uM (MFI),Binder
442 MFI,2920 MFI,B1
533 MFI,3190 MFI,B2
1420 MFI,21000 MFI,B3
930 MFI,20900 MFI,B4
4770 MFI,42300 MFI,B5
1410 MFI,7850 MFI,B6
1470 MFI,3480 MFI,B7
826 MFI,18600 MFI,B8
1970 MFI,17300 MFI,B9
1340 MFI,14900 MFI,B10
2690 MFI,30100 MFI,B11
1310 MFI,13300 MFI,B12
950 MFI,11100 MFI,B13
23500 MFI,53000 MFI,B14
1900 MFI,17200 MFI,B15
2960 MFI,36600 MFI,B16
1880 MFI,24000 MFI,B17
2040 MFI,43200 MFI,B18
383 MFI,489 MFI,B19
436 MFI,19600 MFI,B20
1020 MFI,16100 MFI,B21
3540 MFI,20600 MFI,B22
11600 MFI,69800 MFI,B23
1360 MFI,9680 MFI,B24
2660 MFI,23800 MFI,B25
4890 MFI,35900 MFI,B26
3020 MFI,7210 MFI,B27
3720 MFI,16800 MFI,B28

# Target: T3, human CD8A-Fc (in house) (human, UniProt P01732 22-182, limits assumed)
# T3 construct: captured by goat anti-human Fc on the ProteOn chip; also called hCD8A-Fc; recombinant human CD8 alpha; not shown: linker/tag and Fc of human IgG1
# T3 sequence (P01732 22-182 limits assumed): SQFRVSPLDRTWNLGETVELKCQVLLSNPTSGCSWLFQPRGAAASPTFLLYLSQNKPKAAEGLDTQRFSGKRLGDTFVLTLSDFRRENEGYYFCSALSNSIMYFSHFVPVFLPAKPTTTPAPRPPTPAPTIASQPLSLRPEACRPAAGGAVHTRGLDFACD
# Assay: SPR (ProteOn), captured hCD8A-Fc
row,koff,Binder
1,0.00116 s⁻¹,B1
2,0.00124 s⁻¹,B2
3,0.00385 s⁻¹,B3
4,0.00974 s⁻¹,B4
5,0.000513 s⁻¹,B5
6,0.00166 s⁻¹,B6
7,0.0025 s⁻¹,B7
8,4.53e-05 s⁻¹,B8
9,0.000552 s⁻¹,B9
10,0.000373 s⁻¹,B10
11,0.000288 s⁻¹,B11
12,0.000349 s⁻¹,B12
13,0.0013 s⁻¹,B13
14,0.000235 s⁻¹,B14
15,0.000311 s⁻¹,B15
16,0.000786 s⁻¹,B16
17,0.00115 s⁻¹,B17
18,0.000216 s⁻¹,B18
19,0.00367 s⁻¹,B19
20,0.000375 s⁻¹,B20
21,0.000165 s⁻¹,B21
22,0.00018 s⁻¹,B22
23,0.00215 s⁻¹,B23
24,0.000467 s⁻¹,B24
25,0.00145 s⁻¹,B25
26,0.000763 s⁻¹,B26
27,4.01e-05 s⁻¹,B27
28,0.00136 s⁻¹,B28
